Reference: the supplement of paper PMC10567573

B1: PDLIM7 (parent)
chain: AAGGVPGGGSNNGKTPVCHQCHKV
B2: KLHL12 (parent)
chain: SMTTPRCYVGATVLRGRLYAIAGY
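Note: lentivirally expressed fusions sorted by FACS into six bins by GFP to DsRed ratio, PSI derived from sequencing read proportions per bin multiplied by bin number.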

Variants of: B1
Experiment: protein stability index of a GFP-peptide fusion (GPS, HEK-293T) (PSI 1-6); higher = more stable
Settings: c terminus: a fixed tail appended
For S10P, the protein stability index was 2.9. Variant S10N has a protein stability index of 3.32. With S10L the protein stability index was 2.47. In the case of S10K, the protein stability index is reported as 3.18. S10T showed a protein stability index of 2.67. In the case of S10Q, the protein stability index is reported as 3.02. S10I showed a protein stability index of 2.37. S10H showed a protein stability index of 2.21. Variant S10C has a protein stability index of 2.19. Variant S10D has a protein stability index of 3.96. With S10F the protein stability index was 2.02. Work on G9Y yielded a protein stability index of 3.56. With G9P the protein stability index was 3.69. G9V gave a protein stability index of 2.59. With G9W the protein stability index was 2.98. Work on G9R yielded a protein stability index of 3.06. G9Q showed a protein stability index of 3.6. With G9T the protein stability index was 2.79. In the case of G9N, the protein stability index is reported as 3.21. Variant G9K has a protein stability index of 3.64. Work on G9L yielded a protein stability index of 3.19. G9M showed a protein stability index of 3.22. With G9S the protein stability index was 2.65.

Variants of: B2
Experiment: as above
Settings: c terminus: a fixed tail appended
Variant P5Q has a protein stability index of 2.71. Variant P5Y has a protein stability index of 2.19. Variant P5R has a protein stability index of 4.23. P5I showed a protein stability index of 1.79. P5T gave a protein stability index of 2.22. With P5N the protein stability index was 2.22. In the case of P5H, the protein stability index is reported as 4.85. Work on P5M yielded a protein stability index of 2.98. For P5S, the protein stability index was 3.27. P5W gave a protein stability index of 2.99. Work on G10C yielded a protein stability index of 2.8. With G10A the protein stability index was 1.29. Variant G10H has a protein stability index of 1.85. Work on G10M yielded a protein stability index of 2.75. G10F showed a protein stability index of 1.36. In the case of G10D, the protein stability index is reported as 1.1. In the case of G10N, the protein stability index is reported as 1.95. G10K showed a protein stability index of 2.11. Work on G10L yielded a protein stability index of 2.13. For G10E, the protein stability index was 3.01. For G10I, the protein stability index was 2.94. M2P gave a protein stability index of 1.33. In the case of M2D, the protein stability index is reported as 2.48. Variant M2F has a protein stability index of 3.06. For M2Q, the protein stability index was 1.48. Work on M2A yielded a protein stability index of 2.19. Variant M2L has a protein stability index of 2.64. With M2I the protein stability index was 1.65. Variant M2R has a protein stability index of 2.35. With M2N the protein stability index was 2.96. M2G gave a protein stability index of 2.78. Variant M2H has a protein stability index of 1.93. Work on M2S yielded a protein stability index of 3.02. For M2T, the protein stability index was 2.22. Work on M2V yielded a protein stability index of 1.97. With M2E the protein stability index was 1.68. For M2Y, the protein stability index was 2.77. Variant T4D has a protein stability index of 2.27. With T4H the protein stability index was 3.03. For T4F, the protein stability index was 2.12. T4A gave a protein stability index of 1. T4P gave a protein stability index of 1.93. For T4N, the protein stability index was 3.79. Variant T4L has a protein stability index of 2.16. For T4I, the protein stability index was 2.44. Work on T4M yielded a protein stability index of 3.38. T4K showed a protein stability index of 2.69. In the case of T4V, the protein stability index is reported as 2.65. Work on T4R yielded a protein stability index of 2.16. With T4S the protein stability index was 2.3. Work on T4Y yielded a protein stability index of 2.75. R6T showed a protein stability index of 1.53. Variant R6Q has a protein stability index of 2.54. R6N gave a protein stability index of 2.26. In the case of R6D, the protein stability index is reported as 2.56. Work on R6I yielded a protein stability index of 1.55. R6S showed a protein stability index of 2.42. R6A showed a protein stability index of 1.73. R6L gave a protein stability index of 1.18. R6K gave a protein stability index of 2.04. Variant R6G has a protein stability index of 1.27. Variant R6F has a protein stability index of 2.04. In the case of R6P, the protein stability index is reported as 1.83. Variant T3L has a protein stability index of 2.72. Work on T3M yielded a protein stability index of 1.99. T3K gave a protein stability index of 2.08. For T3Y, the protein stability index was 1.62. With T3V the protein stability index was 2.36. With T3I the protein stability index was 1.02. Work on T3H yielded a protein stability index of 2.34. T3E showed a protein stability index of 1.65. T3F gave a protein stability index of 1.62. For T3P, the protein stability index was 1.59. T3A showed a protein stability index of 2.97. With T3Q the protein stability index was 2.67. For T3C, the protein stability index was 2.75. With T3S the protein stability index was 2.31. Work on T3N yielded a protein stability index of 1.46. S1L gave a protein stability index of 3.32. S1P gave a protein stability index of 3.62. Work on S1H yielded a protein stability index of 1.51. With S1G the protein stability index was 2.39. For S1K, the protein stability index was 1.92. For S1I, the protein stability index was 2.52. With S1C the protein stability index was 3.04. With S1R the protein stability index was 3.81. In the case of S1Q, the protein stability index is reported as 1.39. With S1N the protein stability index was 1.9. With S1M the protein stability index was 1.89. With S1E the protein stability index was 1.66. For S1F, the protein stability index was 2.24. S1D gave a protein stability index of 2.24. In the case of S1A, the protein stability index is reported as 1.85. Work on C7K yielded a protein stability index of 2.18. In the case of C7F, the protein stability index is reported as 3.95. C7P gave a protein stability index of 1.06. In the case of C7T, the protein stability index is reported as 2.16. In the case of C7L, the protein stability index is reported as 3.82. C7N gave a protein stability index of 1.62. For C7S, the protein stability index was 3.15. C7G gave a protein stability index of 3.82. Variant C7V has a protein stability index of 2.13. Work on C7M yielded a protein stability index of 4.32. Work on C7I yielded a protein stability index of 3.84. Variant C7R has a protein stability index of 2.43. C7Q gave a protein stability index of 1.71. C7A gave a protein stability index of 1.32. For C7D, the protein stability index was 2.41. In the case of C7E, the protein stability index is reported as 1.47. In the case of C7H, the protein stability index is reported as 1.16. With Y8N the protein stability index was 1.5. Work on Y8D yielded a protein stability index of 1.71. Work on Y8T yielded a protein stability index of 2.12. Variant Y8L has a protein stability index of 2.48. With Y8P the protein stability index was 1.71. For Y8F, the protein stability index was 2.98. Y8A showed a protein stability index of 2. In the case of Y8Q, the protein stability index is reported as 2.18. For Y8K, the protein stability index was 2.88. Work on Y8I yielded a protein stability index of 3.73. Work on Y8S yielded a protein stability index of 2.77. Y8R showed a protein stability index of 1.21. Y8M showed a protein stability index of 1.57. In the case of Y8E, the protein stability index is reported as 1.06. Work on Y8H yielded a protein stability index of 1.74. In the case of Y8W, the protein stability index is reported as 1.82. For V9T, the protein stability index was 1.74. Work on V9F yielded a protein stability index of 2.87. Variant V9K has a protein stability index of 1.63. Work on V9Y yielded a protein stability index of 3.18. V9M showed a protein stability index of 2.43. In the case of V9S, the protein stability index is reported as 1.82. V9A showed a protein stability index of 2. Variant V9W has a protein stability index of 2.17. In the case of V9E, the protein stability index is reported as 2.3. V9G gave a protein stability index of 1.93. V9R gave a protein stability index of 3.6. V9H showed a protein stability index of 2.62. V9I gave a protein stability index of 2.74. Variant V9Q has a protein stability index of 1.96. In the case of V9P, the protein stability index is reported as 1.7. V9N showed a protein stability index of 2.26. Work on V9L yielded a protein stability index of 3.27. With V9D the protein stability index was 1.4.
